# Test results from patent US20230137032A1 (GlaxoSmithKline, published 2023).
# Where “and” joins values, the source holds several entries; their conditions need not be identical. Equal entries are not always repeated.
# T1: human BCMA expressed on cells (human, UniProt Q02223 1-184)
# T1 sequence (looked up): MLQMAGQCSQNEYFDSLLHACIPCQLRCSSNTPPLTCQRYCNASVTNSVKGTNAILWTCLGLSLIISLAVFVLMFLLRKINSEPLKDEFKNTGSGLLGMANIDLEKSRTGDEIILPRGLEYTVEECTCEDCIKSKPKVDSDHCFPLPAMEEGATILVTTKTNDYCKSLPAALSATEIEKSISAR
# T2: recombinant human BCMA, commercial (US Biological, B0410) (human, UniProt Q02223 5-54, limits assumed)
# T2 construct: also called commercial human BCMA; Human commercial BCMA
# T2 chain (looked up): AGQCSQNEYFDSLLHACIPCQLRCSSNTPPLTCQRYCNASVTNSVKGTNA
# Assays:
# [1] = molecular target: T1, human BCMA expressed on cells; assay: cell-based or functional assay
# [2] = molecular target: T1, human BCMA expressed on cells; assay: FACS on U266 cells, PE anti-human IgG, MFI
# Protocol: Cells were then washed with FACS buffer (PBS+0.5% BSA+0.1% sodium azide) to remove unbound antibody. Cells were incubated with a secondary PE labelled anti-human IgG antibody for 15 minutes at RT and then washed with FACS buffer to remove unbound antibody. Cells were analysed by FACS and mean fluorescence intensity (MFI) values measured to determine binding.
# [3] = molecular target: T3, recombinant cyno BCMA, in house material (cyno, UniProt A0A2K5UD97 4-52); assay: ProteOn SPR run 1, antibody captured on Protein A, 25C
# T3 construct: also called Cyno in house BCMA
# [4] = molecular target: T2, recombinant human BCMA, commercial (US …); assay: ProteOn SPR run 2, antibody captured on Protein A, 25C
# [5] = molecular target: T3, recombinant cyno BCMA, in house material; assay: as above
# cyno BCMA-Fc = molecular target: T4, cyno BCMA-Fc (cyno); assay: ELISA on coated cyno BCMA-Fc, anti-human IgG HRP, TMB
# T4 construct: also called Cyno BCMA CD33 cyno BCMA ECD (4-52) TEV-Fc; recombinant cyno BCMA
# Protocol: Human BCMA-Fc and cyno BCMA-Fc were coated to ELISA plates and the plates were blocked using BSA to reduce non specific binding. CA8 chimeric antibodies were added in a concentration range from 5 ug/ml to 0.1 ug/ml to the human and cyno BCMA coated ELISA plates. […] HRP substrate (TMB) was added to develop the ELISA.
# [6] = molecular target: T2, recombinant human BCMA, commercial (US …); assay: Biacore T100, antibody captured on Protein A, 37C, experiment 1
# Protocol: Protein A was immobilised on a CMS chip (GE Healthcare, Cat No: BR-1005-30) by primary amine coupling and this surface was then used to capture the antibody molecules. Recombinant human BCMA (US Biological, B0410) was used as analyte at 256 nM, 64 nM, 16 nM, 4 nM and 1 nM. Regeneration of the capture surface was carried out using 50 mM NaOH. All binding curves were double referenced with a buffer injection (i.e. 0 nM) the data was fitted to the using the 1:1 model inherent to T100 evaluation software. The run was carried out at 25° C. and 37° C. for experiment 1 and only 37° C. for experiment 2 using HBS-EP as the running buffer.
# [7] = molecular target: T5, recombinant human BCMA, in house material (human, UniProt Q02223 4-53, limits assumed); assay: ProteOn SPR run 1, antibody captured on Protein A, 25C; Run 1 (Table 8)
# T5 construct: also called Human in house BCMA; In house human BCMA
# Protocol: (§1) The initial screen of CA8 chimeric and humanised variants was carried out on the ProteOn XPR36 (Biorad). The method was as follows; Protein A was immobilised on a GLC chip (Biorad, Cat No: 176-5011) by primary amine coupling, CA8 variants were then captured on this surface and recombinant human BCMA (in house or commercial US Biological, B0410) materials (run 2 only)) passed over at 256, 64, 16, 4, 1 nM with a 0 nM injection (i.e. buffer alone) used to double reference the binding curves, the buffer used is the HBS-EP buffer. 50 mM NaOH was used to regenerate the capture surface. The data was fitted to the 1:1 model using the analysis software inherent to the ProteOn XPR36. […] Both runs were carried out at 25° C.
# [8] = molecular target: T5, recombinant human BCMA, in house …; assay: ProteOn SPR run 2, antibody captured on Protein A, 25C; Run 2 (Table 9)
# Protocol: as §1
# [9] = molecular target: T6, recombinant human BCMA Fc 4-53 (human); assay: ELISA, neutralisation of ligand binding to plate-coated BCMA Fc 4-53; competitor APRIL; competitor APRIL
# T6 construct: also called Human BCMA CD33-hBCMA ECD (4-53) TEV-Fc; recombinant BCMA
# Protocol: (§2) 96 well flat bottomed plates were coated overnight with 1 μg/mL solution of recombinant human BCMA Fc 4-53 in PBS. Following a wash step using 0.05% TWEEN20, plates were blocked with 2% Bovine Serum Albumin solution in PBS for 1 hour at room temperature. […] 40 μL of 2% BSA was added to the relevant control wells. […] Equivalent volume of 2% BSA was added to the relevant control wells. Plates were allowed to incubate for 2 hours at room temperature, after which they were washed as before. […] Following a wash step, 50 µL of a 1:4000 dilution of Streptavidin-HRP (Amersham RPN4401) was added to each well and incubated for 30 minutes at room temperature. The wash process was repeated again followed by the addition of […] of Tetramethylbenzidine substrate solution (T8665, Sigma) into each well. Plates were incubated for 20-25 minutes at room temperature, wrapped in foil. The reaction was stopped with the addition of […] of 1M H₂SO₄. Optical density was determined at 450 nm using Spectromax reader.
# [10] = molecular target: T7, cyno BCMA expressed on HEK293 cells (cyno, UniProt A0A2K5UD97 1-183); assay: FMAT cell binding on HEK293 cells transfected with cyno BCMA, anti-human IgG FMAT Blue detection
# T7 construct: whole, on cells; also called cyno BCMA HEK293
# Protocol: Cryopreserved transfected human, cyno BCMA and mock transfected HEK293 cells were recovered from LN2 storage. […] The assay plates were left for a minimum of 90 minutes before the result was read on the ABI8200 (FMAT) plate reader.
# [11] = molecular target: T6, recombinant human BCMA Fc 4-53; assay: competition ELISA: binding of recombinant human BAFF to coated recombinant human BCMA Fc 4-53, biotinylated anti-BAFF and streptavidin-HRP, % of control
# Protocol: as §2
binder,measurement,setting,value
"CA8 chimera antibody (human chimeric CA8) (antibody, V domains shown, also called Chimera CA8; CA8 chimeric antibody) VH: EVQLQQSGAVLARPGASVKMSCKGSGYTFTNYWMHWVKQRPGQGLEWIGATYRGHSDTYYNQKFKGKAKLTAVTSTSTAYMELSSLTNEDSAVYYCTRGAIYNGYDVLDNWGQGTLVTVSS VL: DIQLTQTTSSLSASLGDRVTISCSASQDISNYLNWYQQKPDGTVELVIYYTSNLHSGVPSRFSGSGSGTDYSLTIGYLEPEDVATYYCQQYRKLPWTFGGGSKLEIKR","APRIL induced IC50 (phosphorylated NFkappaB in H-929 cells, MSD assay)",[1],38.5 ug/ml and 257 nM
same,"BAFF induced IC50 (phosphorylated NFkappaB in H-929 cells, MSD assay)",[1],1.5 ug/ml and 10 nM
same,EC50 (read off the curve),[2],~0.3 mg/L
same,Kd,[3],0.457 nM
same,Kd,[4],0.139 nM
same,Kd,[5],2.06 nM
same,binding result,cyno BCMA-Fc,binds
same,Kd,[6],0.051 nM
same,Kd,[7],0.519 nM
same,Kd,[8],0.412 nM
same,EC50,[9],0.773 mg/L
same,EC50 (read off the curve),[10],~0.3 mg/L
same,IC50 (read off the curve),[11],~0.7 mg/L
